Source: publication PMC6208366, “Structure and pro-toxic mechanism of the human Hsp90/PPIase/Tau complex” (Nature Communications, 2018)

Tests used:
[1] = target: T1, full-length human Tau (htau40, 441 residues, 2N4R) (human, UniProt P10636-8 1-441); assay: NMR titration; 1H-15N spectra of 15N-labeled Tau (30-50 μM) with up to 5 equivalents of unlabeled partner, 5 °C, 50 mM sodium phosphate/10 mM NaCl/1 mM DTT pH 6.8; details: both partners purified
T1 construct: 15N-labelled for the NMR titrations; also called 2N4R Tau; source: E. coli BL21 (DE3), vector pNG2, purified (boiling, SP-Sepharose)
T1 sequence (P10636 other isoform, or with tags, fused parts or gaps): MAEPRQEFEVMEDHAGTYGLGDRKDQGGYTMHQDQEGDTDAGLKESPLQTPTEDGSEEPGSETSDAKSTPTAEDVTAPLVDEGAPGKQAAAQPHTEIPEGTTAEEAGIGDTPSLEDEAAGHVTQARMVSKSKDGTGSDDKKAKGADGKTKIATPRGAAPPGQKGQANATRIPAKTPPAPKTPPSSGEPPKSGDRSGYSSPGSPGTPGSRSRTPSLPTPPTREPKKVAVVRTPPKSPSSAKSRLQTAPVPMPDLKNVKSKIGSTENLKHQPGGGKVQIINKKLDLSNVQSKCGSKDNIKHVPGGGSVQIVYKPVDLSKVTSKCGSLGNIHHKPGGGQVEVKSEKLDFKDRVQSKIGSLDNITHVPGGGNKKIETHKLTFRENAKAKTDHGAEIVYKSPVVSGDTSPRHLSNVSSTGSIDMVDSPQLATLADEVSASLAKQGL

human full-length Hsp90β = target: T2, human full-length Hsp90β (human, UniProt P08238 1-724); assay: paramagnetic NMR (pseudo-contact shifts); 80 μM Ile-labelled Hsp90 with 40 μM CLaNP-7-tagged FKBP51 mutant (Tm3+ against Lu3+), 25 °C, 50 mM sodium phosphate/300 mM NaCl pH 7.2 in D2O; details: both partners purified
T2 construct: Human Hsp90β (heat-shock protein 90 beta), full length, dimer; For NMR, Ile δ1 methyl-labelled in a deuterated background or unlabelled; nothing is said for Hsp90; also called heat-shock protein 90; Hsp90 dimer; source: E. coli BL21 (DE3) or Rosetta 2 (DE3), purified (Ni-NTA, SEC)
T2 sequence (P08238 whole entry): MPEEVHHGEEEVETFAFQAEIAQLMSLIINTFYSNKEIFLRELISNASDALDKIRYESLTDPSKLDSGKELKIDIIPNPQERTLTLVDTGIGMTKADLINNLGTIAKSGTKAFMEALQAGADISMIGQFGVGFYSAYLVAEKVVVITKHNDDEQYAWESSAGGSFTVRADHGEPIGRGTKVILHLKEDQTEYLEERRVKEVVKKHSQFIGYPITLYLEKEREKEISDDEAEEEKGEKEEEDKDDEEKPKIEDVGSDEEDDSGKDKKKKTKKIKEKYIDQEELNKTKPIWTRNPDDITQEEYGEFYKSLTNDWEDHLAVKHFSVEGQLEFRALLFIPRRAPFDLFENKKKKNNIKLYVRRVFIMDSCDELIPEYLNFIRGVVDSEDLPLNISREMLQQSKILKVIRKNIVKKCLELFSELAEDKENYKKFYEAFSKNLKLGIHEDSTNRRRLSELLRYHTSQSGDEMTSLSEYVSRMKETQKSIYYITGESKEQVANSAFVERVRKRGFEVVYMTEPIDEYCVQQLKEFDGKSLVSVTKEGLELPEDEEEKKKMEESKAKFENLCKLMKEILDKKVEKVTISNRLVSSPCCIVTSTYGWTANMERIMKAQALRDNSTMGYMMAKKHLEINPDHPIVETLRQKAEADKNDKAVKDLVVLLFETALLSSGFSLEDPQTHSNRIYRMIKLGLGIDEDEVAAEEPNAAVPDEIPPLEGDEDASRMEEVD

Row | binding result [1] | binding result (human full-length Hsp90β) | Binder
1 | binds | – | full-length human FKBP51 (natural protein, UniProt Q13451 1-457, looked up, For NMR, Leu/Val or Ala/Met methyl-labelled or unlabelled; also called PPIase; source: E. coli BL21 (DE3) or Rosetta 2 (DE3), purified (Ni-NTA, HRV3C cut, SEC)) MTTDEGAKNNEESPTATVAEQGEDITSKKDRGVLKIVKRVGNGEETPMIGDKVYVHYKGKLSNGKKFDSSHDRNEPFVFSLGKGQVIKAWDIGVATMKKGEICHLLCKPEYAYGSAGSLPKIPSNATLFFEIELLDFKGEDLFEDGGIIRRTKRKGEGYSNPNEGATVEIHLEGRCGGRMFDCRDVAFTVGEGEDHDIPIGIDKALEKMQREEQCILYLGPRYGFGEAGKPKFGIEPNAELIYEVTLKSFEKAKESWEMDTKEKLEQAAIVKEKGTVYFKGGKYMQAVIQYGKIVSWLEMEYGLSEKESKASESFLLAAFLNLAMCYLKLREYTKAVECCDKALGLDSANEKGLYRRGEAQLLMNEFESAKGDFEKVLEVNPQNKAARLQISMCQKKAKEHNERDRRIYANMFKKFAEQDAKEEANKAMGKKTSEGVTNEKGTDSQAMEEEKPEGHV
2 | – | binds | CLaNP-7-tagged FKBP51 C176S/C183S/C215S/C339S/C394S/E110C (natural protein, human, UniProt Q13451 1-457, looked up, CLaNP-7 lanthanide tag (Tm3+ or Lu3+) attached to C107 and C110 (E110C) in FK1, Human FKBP51, full length, with E110C and all cysteines other than C107 removed; also called FKBP51_(C176S/C183S/C215S/C339S/C394S/E110C)-CLaNP-7; source: E. coli, purified as the wild-type protein, tagged with CLaNP-7) MTTDEGAKNNEESPTATVAEQGEDITSKKDRGVLKIVKRVGNGEETPMIGDKVYVHYKGKLSNGKKFDSSHDRNEPFVFSLGKGQVIKAWDIGVATMKKGEICHLLCKPCYAYGSAGSLPKIPSNATLFFEIELLDFKGEDLFEDGGIIRRTKRKGEGYSNPNEGATVEIHLEGRSGGRMFDSRDVAFTVGEGEDHDIPIGIDKALEKMQREEQSILYLGPRYGFGEAGKPKFGIEPNAELIYEVTLKSFEKAKESWEMDTKEKLEQAAIVKEKGTVYFKGGKYMQAVIQYGKIVSWLEMEYGLSEKESKASESFLLAAFLNLAMCYLKLREYTKAVESCDKALGLDSANEKGLYRRGEAQLLMNEFESAKGDFEKVLEVNPQNKAARLQISMSQKKAKEHNERDRRIYANMFKKFAEQDAKEEANKAMGKKTSEGVTNEKGTDSQAMEEEKPEGHV
